Paper PMC4858679, “PCNA is involved in the EndoQ-mediated DNA repair process in Thermococcales” (Scientific Reports, 2016)
Each block holds one binder with its values, some of them ahead of it.

Key:
[1] = target: T1, Endonuclease Q from Pyrococcus furiosus (Pyrococcus furiosus (endogenous in P. …, UniProt Q8U0N5 1-424)); assay: cell-based or functional assay
T1 sequence (looked up): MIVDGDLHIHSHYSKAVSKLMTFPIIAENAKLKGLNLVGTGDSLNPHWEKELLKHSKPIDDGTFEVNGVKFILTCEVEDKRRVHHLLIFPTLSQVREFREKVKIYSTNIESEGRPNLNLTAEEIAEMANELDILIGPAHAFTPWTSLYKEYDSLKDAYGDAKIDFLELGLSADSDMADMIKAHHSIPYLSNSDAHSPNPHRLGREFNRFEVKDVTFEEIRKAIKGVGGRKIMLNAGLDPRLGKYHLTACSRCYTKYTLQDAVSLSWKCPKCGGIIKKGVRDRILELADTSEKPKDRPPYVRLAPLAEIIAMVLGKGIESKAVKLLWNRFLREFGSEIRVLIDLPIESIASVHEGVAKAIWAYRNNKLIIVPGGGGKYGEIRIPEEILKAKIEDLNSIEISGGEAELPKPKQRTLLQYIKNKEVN

[2] = target: T2, Endonuclease Q from Thermococcus kodakarensis, wild type (Thermococcus kodakarensis, UniProt Q5JI33 1-421); assay: SPR; Biacore J; TkoPCNA1 immobilised on a CM5 chip, TkoEndoQ injected (12-800 nM, 120 s); 25 °C; 10 mM HEPES pH 7.4, 0.4 M NaCl, 0.005% Tween20; 1:1 reaction model; apparent KD; conditions: both partners purified
T2 construct: Endonuclease Q (EndoQ), Thermococcus kodakarensis KOD1, locus TK0887, GenBank BAD85076; printed MW 48080.3; the C-terminal truncation removes residues 409-421, so the chain ends at 421; no tag is named; also called TkoEndoQ; TkoEndoQ^WT; source: E. coli, purified (as described previously)
T2 sequence (looked up): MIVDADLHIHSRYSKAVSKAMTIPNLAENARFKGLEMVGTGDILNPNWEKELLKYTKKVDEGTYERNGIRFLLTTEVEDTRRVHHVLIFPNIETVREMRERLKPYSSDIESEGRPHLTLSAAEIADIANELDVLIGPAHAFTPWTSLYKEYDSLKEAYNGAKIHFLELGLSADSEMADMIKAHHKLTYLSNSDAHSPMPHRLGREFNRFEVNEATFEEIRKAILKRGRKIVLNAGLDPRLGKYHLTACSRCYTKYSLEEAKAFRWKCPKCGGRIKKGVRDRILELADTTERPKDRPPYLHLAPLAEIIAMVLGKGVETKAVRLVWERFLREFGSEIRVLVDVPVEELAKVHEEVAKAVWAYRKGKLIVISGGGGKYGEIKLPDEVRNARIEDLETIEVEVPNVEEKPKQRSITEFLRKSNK

[3] = target: the molecule itself; assay: SEC; gel filtration of purified TkoPCNA1 proteins; 160 μM

stimulation of the endonuclease activity of purified PfuEndoQ on dI-containing DNA by purified PfuPCNA (0.18 M NaCl) [1]: 6 to 7 fold
B1: Proliferating cell nuclear antigen from Pyrococcus furiosus (natural protein, UniProt O73947 1-249, looked up)
chain: MPFEIVFEGAKEFAQLIDTASKLIDEAAFKVTEDGISMRAMDPSRVVLIDLNLPSSIFSKYEVVEPETIGVNMDHLKKILKRGKAKDTLILKKGEENFLEITIQGTATRTFRVPLIDVEEMEVDLPELPFTAKVVVLGEVLKDAVKDASLVSDSIKFIARENEFIMKAEGETQEVEIKLTLEDEGLLDIEVQEETKSAYGVSYLSDMVKGLGKADEVTIKFGNEMPMQMEYYIRDEGRLTFLLAPRVEE

Kd [2]: 55 nM
B2: Proliferating cell nuclear antigen 1 from Thermococcus kodakarensis, wild type (natural protein, UniProt Q5JF32 1-249, looked up)
chain: MPFEVVFDGAKEFADLIATASNLIDEAAFKFTEEGISMRAMDPSRVVLIDLNLPESIFSKYEVEEPETIGINMDQFKKILKRGKAKDTLILRKGDENFLEITFEGTAKRTFRLPLIDVEELELELPELPFTAKVVLLGEVLKEGIKDASLVSDAIKFIAKENEFTMKAEGETNEVEIRLTLEDEGLLDLEVEEETKSAYGIRYLSDMVKGIGKADEVILRFGNEMPLQMEYMIRDEGRLTFLLAPRVEE
notes: PCNA1 (DNA polymerase sliding clamp 1), Thermococcus kodakarensis, locus TK0535; printed MW 28239.4; also called TkoPCNA1; TkoPCNA1^WT; source: E. coli, purified (as described previously)
binding result [3]: binds
